Patent US20190300580A1

Key:
[1] = biological target: Dengue serotype 3 VLP (The Native Antigen Company), wild type (dengue virus serotype 3); assay: competition ELISA on VLP, unlabelled 4G2 at 10 micrograms per ml against biotinylated 4G2
[2] = biological target: wild type dengue serotype 2 exodomain, HEK293-produced (The Native Antigen Company DENV2-ENV) (dengue virus serotype 2); assay: ELISA, His-tagged exodomain captured by anti-His-tag antibody, 4G2 titrated (FIG. 5a)
[3] = biological target: wild type dengue serotype 4 exodomain (The Native Antigen Company DENV4-ENV) (dengue virus serotype 4); assay: as above

Substance: fusion-loop antibody 4G2 (The Native Antigen Company AbFLAVENV-4G2)
- % inhibition [1]: 80%
- low antibody concentration still giving a signal above background [2]: 250 pg/mL
- low antibody concentration still giving a signal above background [3]: 250 pg/mL
